Experimental findings from patent US7390643B2, “Geranyl diphosphate synthase molecules, and nucleic acid molecules encoding same” (Washington State University Research Foundation, priority 2002, dated 2008) are described below.

The subject of series [1] is recombinant GPP synthases from grand fir. Kind of series: Kinetic evaluation, standard prenyltransferase assay with purified recombinant His6-tagged GPP synthases. It counts as biochemical, Abies grandis. As for the experimental part: Molecular weight determination and kinetic evaluation. The molecular weight of GPP synthase was determined by gel filtration chromatography on a calibrated XK 16/70 column of Superdex 200 (Amersham Biosciences) as previously described (C. Burke and R. Croteau, J. Biol. Chem. 277:3141-3149, 2002). For kinetic evaluation, the standard prenyltransferase assay was performed (C. Burke and R. Croteau, J. Biol. Chem. 277:3141-3149, 2002) but the reaction was terminated after 4 min. to ensure linearity in the rate measurements. For preparative incubations, the reaction time was extended to 8 min., and all assays contained from 0.25 to 1.0 μg of purified protein.
Kinetic characterization of the GPP synthases (SEQ ID NOS:12, 16, and 20). To compare substrate binding behavior and turnover rates of these grand fir GPP synthases (SEQ ID NOS:12, 16, and 20) to those of the Mentha synthase, kinetic constants were determined (Table 1).

Series [2] concerns presumptive prenyltransferases (GPP synthases and GGPP synthase) from grand fir. Kind of series: Product determination and co-substrate selectivity assay ([4-14C]IPP plus allylic co-substrate, MgCl2; radio-GC of hydrolysed products). It counts as biochemical, Abies grandis. Particulars: for product formed: radio-GC; for rate with GPP as allylic co-substrate in the production of FPP, relative to the rate with DMAPP: standard assay conditions. The text has this: Protein purification and product determination. The affinity-based purification procedure for His-tagged proteins has been described previously, as has the standard purification protocol for the corresponding non-tagged proteins (C. Burke and R. Croteau, J. Biol. Chem.277:3141-3149, 2002). The partial purification procedure for the native GPP synthase from A. grandis has also been reported previously (D. Tholl et al., Arch. Biochem. Biophys. 386:233-242, 2001). Procedures for polyclonal antibody preparation were as described previously (C. C. Burke et al., Proc. Natl. Acad. Sci. USA 96:13062-13067, 1999), in this case using the SDS-PAGE purified AgGPPS3 protein (SEQ ID NO:7) as antigen. The assay procedures and methods for product analysis were similar to those previously described (C. Burke and R. Croteau, J. Biol. Chem. 277:3141-3149, 2002), except that for radio-GC a Raga (Raytest) radio-detector connected in-line to a Series 600 (Gow-Mac) chromatograph was employed with a 5% phenyl polysiloxane (ZB-5; Phenomenex) capillary column under hydrogen gas flow (70° C. for 5 min. followed by an 8° C. per min. ramp to 240° C. for 5 min).
As might be expected based on prior experience, the full-length (preprotein) versions of these enzymes (SEQ ID NOS:3, 5, 7 and 22) were not efficiently expressed in soluble form and the bulk of the protein generated was in inclusion bodies. However, the truncated versions of these enzymes with the appended C-terminal His6-tag (SEQ ID NOS:12, 16, 20 and 26) readily afforded soluble protein that was affinity purified to >90% in amounts up to 6 mg/L. To define the function of these presumptive prenyltransferases, assays were conducted with the purified proteins (SEQ ID NOS:12, 16, 20 and 26) using [4-^14C]IPP and DMAPP as co-substrates and MgCl2 as cofactor. The resulting products were enzymatically hydrolyzed to the corresponding alcohols and analyzed by radio-GC. […] His-tagged AgGPPS1 (SEQ ID NO:16) and AgGPPS3 (SEQ ID NO:20) were able to accept GPP as the allylic co-substrate (110% the rate with DMAPP under standard assay conditions) in the production of FPP, and His-tagged AgGPPS3 (SEQ ID NO:20) could also efficiently utilize FPP as allylic co-substrate in the formation of GGPP (at about 50% the rate with DMAPP as co-substrate).

Where [3] appears, read: [4-14C]IPP and DMAPP as co-substrates, MgCl2 as cofactor.

“Also recorded” adds a separate entry of the source.

B1: AgGPPS2: recombinant geranyl diphosphate synthase from Grand fir (Abies grandis), truncated, His6-tagged, SEQ ID NO:12 (protein)
chain: MFDFNKYMDSKAMTVNEALNKAIPLRYPQKIYESMRYSLLAGGKRVRPVLCIAACELVGGTEELAIPTACAIEMIHTMSLMHDDLPCIDNDDLRRGKPTNHKIFGEDTAVTAGNALHSYAFEHIAVSTSKTVGADRILRMVSELGRATGSEGVMGGQMVDIASEGDPSIDLQTLEWIHIHKTAMLLECSVVCGAIIGGASEIVIERARRYARCVGLLFQVVDDILDVTKSSDELGKTAGKDLISDKATYPKLMGLEKAKEFSDELLNRAKGELSCFDPVKAAPLLGLADYVAFRQNLEHHHHHH
modifications: His6 tag; Abies Grandis
B1: in series [1], the “turnover rate compared with AgGPPS3” value is recorded as “four fold higher” and the “turnover rate compared with the heterotetrameric Mentha GPP synthase” value is recorded as “three-fold lower”. Moreover, the allylic co-substrate utilised entry in series [2] is listed as “only DMAPP”. In series [2] (setting [3]), the product formed result was “geranyl diphosphate as the major product; also recorded: only GPP”.

B2: AgGPPS3: recombinant geranyl diphosphate synthase from Grand fir (Abies grandis), truncated, His6-tagged, SEQ ID NO:20 (protein)
chain: MFDFNKYMLSKAMAVTEALDKAIPHSYPQKIHESMRYSLLAGGKRVRPVLCIAACELVGGREELAMPTACAMEMIHTMSLIHDDLPCMDNDDLRRGKPTNHKVFGQDTALLAGDALHAFAFEHIVAFTSKSVGSDGILRAVTELARATGPQGIMGGQIVDIASERDAFVDLQTLEWIHIHKTAVLFECATVCGAIIGGASGDEIERIRRFARYLGLLFQVVDDILDVTKSSEDLGKTAGKDLVSDKATYPKLMGLEKAKGFSLELLNKAKEELSCFDPMKAAPLFGLADYMALRQNLEHHHHHH
modifications: His6 tag; Abies Grandis
For the molecule B2, in series [2], the “rate with FPP as allylic co-substrate in the formation of GGPP, relative to the rate with DMAPP” value is “about 50%” and the “rate with GPP as allylic co-substrate in the production of FPP, relative to the rate with DMAPP” value came to 110%. Also, in series [2] (setting [3]), the farnesyl diphosphate produced entry was “about 30%” and the product formed result is “geranyl diphosphate as the major product”.

B3: AgGPPS1: recombinant geranyl diphosphate synthase from Grand fir (Abies grandis), truncated, His6-tagged, SEQ ID NO:16 (protein)
chain: MFDFKEYLHSKAISVNEALERAVPLRYPEKIHEAMRYSLLAGGKRIRPILTIAACELVGGSEELAMPTACAMEMIHTMSLIHDDLPSMDNDDLRRGKLTNHKVFGEGTAVLAGDALLSFAFEHIAVSTRKTVASHRVLRVVSELGKAIGSQGVAGGQVADITSEGDPSVGLETLEWIHIHKTAVLLECAVVSGAIIGGASENEIERTGRYARCVGLLFQVVDDILDVTRSSEELGKTAGKDLVSDKATYPKLMGLEKAKEFADELLDRAKEELSCFNPAKAAPLLGLADYIALRQNLEHHHHHH
modifications: His6 tag; Abies Grandis
For the molecule B3, in series [1], the “KM(DMAPP) compared with the Mentha enzyme” value is recorded as “two-fold higher” and the “turnover rate compared with AgGPPS3” value is reported as “four fold higher”. The product formed result in series [2] (setting [3]) is on record as “geranyl diphosphate as the major product”. Moreover, the “rate with GPP as allylic co-substrate in the production of FPP, relative to the rate with DMAPP” value in series [2] stood at 110%.

B4: GGPPS: recombinant geranylgeranyl diphosphate synthase from grand fir, truncated, His6-tagged, SEQ ID NO:26 (protein)
chain: MFDFKEYLRSKAMAVNEALDRAVPLRYPERIHEAMRYSLLAGGKRVRPVLCISACELVGGTEEVAMPTACAMEMIHTMSLIHDDLPCMDNDDFRRGKPTNHKVFGEGTAILAGDALLSFAFEHIAVSTSKSVGTDRILRVVSELGRTIGSQGLVGGQVADITSEGDASVDLDTLEWIHIHKTAVLLECSVMCGAIISGASDNEIERIQRYARSVGLLFQVVDDILDVTKSSKELGKTAGKDLISDKATYPKLMGLEKAKQFASDLLIRAKEDLSCFDPMKAAPLLGLADYIAFRQNLEHHHHHH
modifications: His6 tag; Abies Grandis
Take B4: in series [2] (setting [3]), the product formed entry was “predominately geranylgeranyl diphosphate as product with trace amounts of geranyl diphosphate”.
